Earlier results on one substance are cited in paper PMC8410215.

This data set concerns the target Glu66 (UniProt position 148, FTKKMEENAKK). To be noted: folded protein with Glu66 buried in the interior; water molecules penetrate to form a small channel around the residue.

In the case of “Staphylococcal nuclease V66E variant (Staphylococcus aureus; V66E)”, the pKa (commonly the negative logarithm of the acid dissociation constant) is given as 8.8.
